One experiment has as its target R1003W GFP-βIISp (human) (UniProt Q01082). Nature of the experiment: pull-down.
The target in another experiment is F-actin (UniProt P68135). As to the kind of experiment: co-sedimentation.

Sequence of R1003W GFP-βIISp (human) (Q01082 whole entry R1003W): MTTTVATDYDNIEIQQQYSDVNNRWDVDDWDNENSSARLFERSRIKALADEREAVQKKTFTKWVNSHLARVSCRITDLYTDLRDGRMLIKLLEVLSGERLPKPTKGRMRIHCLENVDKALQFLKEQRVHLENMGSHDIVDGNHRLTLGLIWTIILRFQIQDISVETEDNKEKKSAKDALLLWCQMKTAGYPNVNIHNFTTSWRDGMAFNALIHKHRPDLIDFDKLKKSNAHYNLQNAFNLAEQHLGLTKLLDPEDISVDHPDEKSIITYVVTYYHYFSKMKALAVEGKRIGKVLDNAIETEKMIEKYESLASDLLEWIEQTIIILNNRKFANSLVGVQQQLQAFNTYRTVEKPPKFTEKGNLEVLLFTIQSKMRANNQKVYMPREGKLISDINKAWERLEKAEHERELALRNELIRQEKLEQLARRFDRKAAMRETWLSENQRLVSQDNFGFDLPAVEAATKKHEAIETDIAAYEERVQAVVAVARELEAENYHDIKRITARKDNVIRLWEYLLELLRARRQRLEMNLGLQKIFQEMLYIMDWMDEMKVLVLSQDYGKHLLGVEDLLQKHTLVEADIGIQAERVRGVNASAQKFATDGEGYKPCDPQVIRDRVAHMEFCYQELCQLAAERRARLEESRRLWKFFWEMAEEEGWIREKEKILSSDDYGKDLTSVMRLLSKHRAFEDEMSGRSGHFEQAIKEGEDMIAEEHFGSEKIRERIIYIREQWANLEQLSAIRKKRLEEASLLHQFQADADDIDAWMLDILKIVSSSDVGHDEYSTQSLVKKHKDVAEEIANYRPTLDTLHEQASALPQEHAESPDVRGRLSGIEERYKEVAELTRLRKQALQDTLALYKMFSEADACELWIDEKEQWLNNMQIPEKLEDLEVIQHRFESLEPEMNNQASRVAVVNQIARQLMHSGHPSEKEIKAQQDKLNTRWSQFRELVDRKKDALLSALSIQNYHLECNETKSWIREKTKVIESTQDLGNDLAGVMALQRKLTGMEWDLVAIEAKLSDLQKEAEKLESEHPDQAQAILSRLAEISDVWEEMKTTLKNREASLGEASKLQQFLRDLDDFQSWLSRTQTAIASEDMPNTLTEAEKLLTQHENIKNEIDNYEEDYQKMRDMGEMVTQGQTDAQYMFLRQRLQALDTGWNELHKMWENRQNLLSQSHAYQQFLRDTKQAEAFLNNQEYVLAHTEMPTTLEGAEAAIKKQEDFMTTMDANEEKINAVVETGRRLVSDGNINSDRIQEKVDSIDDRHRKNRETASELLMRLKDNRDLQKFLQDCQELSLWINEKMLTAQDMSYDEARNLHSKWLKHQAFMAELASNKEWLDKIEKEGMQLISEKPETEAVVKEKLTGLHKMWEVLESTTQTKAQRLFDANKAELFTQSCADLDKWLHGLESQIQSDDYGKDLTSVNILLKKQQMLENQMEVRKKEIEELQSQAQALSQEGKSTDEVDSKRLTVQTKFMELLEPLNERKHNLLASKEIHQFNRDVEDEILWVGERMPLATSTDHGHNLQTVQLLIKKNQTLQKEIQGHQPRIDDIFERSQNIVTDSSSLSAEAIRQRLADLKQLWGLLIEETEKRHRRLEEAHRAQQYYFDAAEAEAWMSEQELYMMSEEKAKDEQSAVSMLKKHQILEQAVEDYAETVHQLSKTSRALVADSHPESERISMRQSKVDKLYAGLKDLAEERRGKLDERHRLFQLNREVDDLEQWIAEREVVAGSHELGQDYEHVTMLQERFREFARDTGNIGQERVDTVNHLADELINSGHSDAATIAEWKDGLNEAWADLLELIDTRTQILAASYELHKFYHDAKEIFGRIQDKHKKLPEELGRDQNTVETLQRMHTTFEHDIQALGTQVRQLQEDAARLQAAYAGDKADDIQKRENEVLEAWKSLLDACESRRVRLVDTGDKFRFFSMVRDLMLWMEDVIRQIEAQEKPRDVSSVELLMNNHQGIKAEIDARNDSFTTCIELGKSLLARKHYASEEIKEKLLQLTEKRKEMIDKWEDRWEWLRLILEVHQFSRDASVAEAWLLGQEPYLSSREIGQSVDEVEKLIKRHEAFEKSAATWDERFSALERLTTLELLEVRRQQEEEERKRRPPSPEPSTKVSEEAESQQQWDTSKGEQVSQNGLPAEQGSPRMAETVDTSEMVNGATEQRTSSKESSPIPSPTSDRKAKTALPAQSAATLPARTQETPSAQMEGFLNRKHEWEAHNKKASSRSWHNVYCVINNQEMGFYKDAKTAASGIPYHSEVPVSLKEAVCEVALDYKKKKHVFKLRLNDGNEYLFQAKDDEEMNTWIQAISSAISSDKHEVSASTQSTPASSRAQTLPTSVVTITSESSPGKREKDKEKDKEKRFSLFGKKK

With “mCherry-tagged αII-spectrin, Q13813-2 1-2477”, the percent reduction of association against WT GFP-βIISp with R1003W GFP-βIISp (human) came out at 40%.

Regarding “purified full-length βII-spectrin p.A850G (from UniProt Q01082-1 1-2364) (natural protein)”, in the experiment with F-actin, the percent higher F-actin binding than WT was found to be 50%.

In turn, “purified full-length βII-spectrin p.I159_Q160del (from UniProt Q01082-1 1-2364) (natural protein)” displayed a percent less association with F-actin than WT in the experiment with F-actin of 70%.

On to “purified full-length βII-spectrin p.T59I (from UniProt Q01082-1 1-2364) (natural protein)”, for which the percent less association with F-actin than WT in the experiment with F-actin amounted to 40%.
